B1: Nephrocystin-4 (Homo sapiens), O75161 (parent)
chain: MNDWHRIFTQNVLVPPHPQRARQPWKESTAFQCVLKWLDGPVIRQGVLEVLSEVECHLRVSFFDVTYRHFFGRTWKTTVKPTKRPPSRIVFNEPLYFHTSLNHPHIVAVVEVVAEGKKRDGSLQTLSCGFGILRIFSNQPDSPISASQDKRLRLYHGTPRALLHPLLQDPAEQNRHMTLIENCSLQYTLKPHPALEPAFHLLPENLLVSGLQQIPGLLPAHGESGDALRKPRLQKPITGHLDDLFFTLYPSLEKFEEELLELHVQDHFQEGCGPLDGGALEILERRLRVGVHNGLGFVQRPQVVVLVPEMDVALTRSASFSRKVVSSSKTSSGSQALVLRSRLRLPEMVGHPAFAVIFQLEYVFSSPAGVDGNAASVTSLSNLACMHMVRWAVWNPLLEADSGRVTLPLQGGIQPNPSHCLVYKVPSASMSSEEVKQVESGTLRFQFSLGSEEHLDAPTEPVSGPKVERRPSRKPPTSPSSPPAPVPRVLAAPQNSPVGPGLSISQLAASPRSPTQHCLARPTSQLPHGSQASPAQAQEFPLEAGISHLEADLSQTSLVLETSIAEQLQELPFTPLHAPIVVGTQTRSSAGQPSRASMVLLQSSGFPEILDANKQPAEAVSATEPVTFNPQKEESDCLQSNEMVLQFLAFSRVAQDCRGTSWPKTVYFTFQFYRFPPATTPRLQLVQLDEAGQPSSGALTHILVPVSRDGTFDAGSPGFQLRYMVGPGFLKPGERRCFARYLAVQTLQIDVWDGDSLLLIGSAAVQMKHLLRQGRPAVQASHELEVVATEYEQDNMVVSGDMLGFGRVKPIGVHSVVKGRLHLTLANVGHPCEQKVRGCSTLPPSRSRVISNDGASRFSGGSLLTTGSSRRKHVVQAQKLADVDSELAAMLLTHARQGKGPQDVSRESDATRRRKLERMRSVRLQEAGGDLGRRGTSVLAQQSVRTQHLRDLQVIAAYRERTKAESIASLLSLAITTEHTLHATLGVAEFFEFVLKNPHNTQHTVTVEIDNPELSVIVDSQEWRDFKGAAGLHTPVEEDMFHLRGSLAPQLYLRPHETAHVPFKFQSFSAGQLAMVQASPGLSNEKGMDAVSPWKSSAVPTKHAKVLFRASGGKPIAVLCLTVELQPHVVDQVFRFYHPELSFLKKAIRLPPWHTFPGAPVGMLGEDPPVHVRCSDPNVICETQNVGPGEPRDIFLKVASGPSPEIKDFFVIIYSDRWLATPTQTWQVYLHSLQRVDVSCVAGQLTRLSLVLRGTQTVRKVRAFTSHPQELKTDPKGVFVLPPRGVQDLHVGVRPLRAGSRFVHLNLVDVDCHQLVASWLVCLCCRQPLISKAFEIMLAAGEGKGVNKRITYTNPYPSRRTFHLHSDHPELLRFREDSFQVGGGETYTIGLQFAPSQRVGEEEILIYINDHEDKNEEAFCVKVIYQ
B2: Protein fantom (Homo sapiens), Q68CZ1-2 (parent)
chain: MSGPTDETAGDLPVKDTGLNLFGMGGLQETSTTRTMKSRQAVSRVSREELEDRFLRLHDENILLKQHARKQEDKIKRMATKLIRLVNDKKRYERVGGGPKRLGRDVEMEEMIEQLQEKVHELEKQNETLKNRLISAKQQLQTQGYRQTPYNNVQSRINTGRRKANENAGLQECPRKGIKFQDADVAETPHPMFTKYGNSLLEEARGEIRNLENVIQSQRGQIEELEHLAEILKTQLRRKENEIELSLLQLREQQATDQRSNIRDNVEMIKLHKQLVEKSNALSAMEGKFIQLQEKQRTLRISHDALMANGDELNMQLKEQRLKCCSLEKQLHSMKFSERRIEELQDRINDLEKERELLKENYDKLYDSAFSAAHEEQWKLKEQQLKVQIAQLETALKSDLTDKTEILDRLKTERDQNEKLVQENRELQLQYLEQKQQLDELKKRIKLYNQENDINADELSEALLLIKAQKEQKNGDLSFLVKVDSEINKDLERSMRELQATHAETVQELEKTRNMLIMQHKINKDYQMEVEAVTRKMENLQQDYELKVEQYVHLLDIRAARIHKLEAQLKDIAYGTKQYKFKPEIMPDDSVDEFDETIHLERGENLFEIHINKVTFSSEVLQASGDKEPVTFCTYAFYDFELQTTPVVRGLHPEYNFTSQYLVHVNDLFLQYIQKNTITLEVHQAYSTEYETIAACQLKFHEILEKSGRIFCTASLIGTKGDIPNFGTVEYWFRLRVPMDQAIRLYRERAKALGYITSNFKGPEHMQSLSQQAPKTAQLSSTDSTDGNLNELHITIRCCNHLQSRASHLQPHPYVVYKFFDFADHDTAIIPSSNDPQFDDHMYFPVPMNMDLDRYLKSESLSFYVFDDSDTQENIYIGKVNVPLISLAHDRCISGIFELTDHQKHPAGTIHVILKWKFAYLPPSGSITTEDLGNFIRSEEPEVVQRLPPASSVSTLVLAPRPKPRQRLTPVDKKVSFVDIMPHQSDVSQEGSVDEVKENTEKMQQGKDDVSLLSEGQLAEQSLASSEDETEITEDLEPEVEEDMSASDSDDCIIPGPISKNIKQPSEKIRIEIIALSLNDSQVTMDDTIQRLFVECRFYSLPAEETPVSLPKPKSGQWVYYNYSNVIYVDKENNKAKRDILKAILQKQEMPNRSLRFTVVSDPPEDEQDLECEDIGVAHVDLADMFQEGRDLIEQNIDVFDARADGEGIGKLRVTVEALHALQSVYKQYRDDLEA
partner: B1 chain

Variants of: B1
Conditions: with RPGRIP1L

| effect of a mutation on the interaction | Variant |
| --- | --- |
| decreasing interaction | G754R |

Variants of: B2
Conditions: with nphp4_human NPHP4, O75161

| effect of a mutation on the interaction | Variant |
| --- | --- |
| decreasing interaction | T615P |

From IntAct's records for PubMed 17558407
